This is an account of results in EP4538286A1 (Adlai Nortye Biopharma Co., Ltd., dated 2025).

For one assay, the target named is T1, human CD28 protein (human, UniProt P10747 19-152).
T1 construct: bought protein coated on the ELISA plate; also called human CD28 antigen
The assay is described as follows: ELISA, plate-coated human CD28. A general note: An ELISA detects its analyte on a solid surface through an enzyme-linked reagent.

Another assay concerns the target T2, human CTLA4 protein (human, UniProt P16410 37-162, limits assumed).
T2 construct: bought protein coated on the ELISA plate; also called human CTLA4 antigen
T2 sequence (looked up): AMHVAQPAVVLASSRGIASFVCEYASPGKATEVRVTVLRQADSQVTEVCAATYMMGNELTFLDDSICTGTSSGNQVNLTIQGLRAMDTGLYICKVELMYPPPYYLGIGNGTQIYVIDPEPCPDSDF
The assay is described as follows: ELISA, plate-coated human CTLA4.

T1 sequence (P10747 19-152 limits assumed): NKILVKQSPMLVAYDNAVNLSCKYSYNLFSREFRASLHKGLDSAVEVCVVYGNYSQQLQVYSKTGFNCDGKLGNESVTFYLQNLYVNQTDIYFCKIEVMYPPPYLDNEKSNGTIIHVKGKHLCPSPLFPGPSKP

B1: Abs-247 (other)
heavy: VIHVTKEVKEVATLSCGHNVSVEELAQTRIYWQKEKKMVLTMMSGDANIWPEYKNRTIFDITNNLSIVYLELRPSDEGTYECLVLKYEKDAFKREHLAEVTLSVKADGGGGSGGGGSGGGGSGGGGSGEVQLLESGGGLVQPGGSLRLSCAASGFTFSSYAMSWVRQAPGKGLEWVSGISGSGGFTYYADSVKGRFTISRDNSKNTLYLQMNSLRAEDTAVYYCAKPPRGYNYGPFDYWGQGTLVTVSSASTKGPSVFPLAPCSRSTSESTAALGCLVKDYFPEPVTVSWNSGALTSGVHTFPAVLQSSGLYSLSSVVTVPSSSLGTKTYTCNVDHKPSNTKVDKRVESKYGPPCPPCPAPEFLGGPSVFLFPPKPKDTLMISRTPEVTCVVVDVSQEDPEVQFNWYVDGVEVHNAKTKPREEQFNSTYRVVSVLAVLHQDWLNGKEYKCKVSNKGLPSSIEKTISKAKGQPREPQVYTLPPSQEEMTKNQVSLTCLVKGFYPSDIAVAWESNGQPENNYKTTPPVLDSDGSFFLYSRLTVDKSRWQEGNVFSCSVMHEALHAHYTQKSLSLSLGK
light: SYVLTQPPSVSVAPGQTARITCGGNNIGSKSVHWYQQKPGQAPVLVVYDDSDRPSGIPERFSGSNSGNTATLTISRVEAGDEADYYCQVWDSSSDHVVFGGGTKLTVLGQPKAAPSVTLFPPSSEELQANKATLVCLISDFYPGAVTVAWKADSSPVKAGVETTTPSKQSNNKYAASSYLSLTPEQWKSHRSYSCQVTHEGSTVEKTVAPTECS
notes: the paragraph that names the antibody is followed; also called CD80 IgV mutant M47A/I69Y/A71E/V83L-sugemalimab fusion
Regarding B1, the binding result with human CD28 protein and with human CTLA4 protein was “no binding” throughout.

B2: Abs-251 (other)
heavy: VIHVTKEVKEVATLSCGHNVSVEELAQTRIYWQKEKKMVLTMMSGDMNIWPEYKNRTIFDITNNLSIVYLELRPSDEGTYECLVLKYEKDAFKREHLAEVTLSVKADGGGGSGGGGSGGGGSGGGGSGEVQLLESGGGLVQPGGSLRLSCAASGFTFSSYAMSWVRQAPGKGLEWVSGISGSGGFTYYADSVKGRFTISRDNSKNTLYLQMNSLRAEDTAVYYCAKPPRGYNYGPFDYWGQGTLVTVSSASTKGPSVFPLAPCSRSTSESTAALGCLVKDYFPEPVTVSWNSGALTSGVHTFPAVLQSSGLYSLSSVVTVPSSSLGTKTYTCNVDHKPSNTKVDKRVESKYGPPCPPCPAPEFLGGPSVFLFPPKPKDTLMISRTPEVTCVVVDVSQEDPEVQFNWYVDGVEVHNAKTKPREEQFNSTYRVVSVLAVLHQDWLNGKEYKCKVSNKGLPSSIEKTISKAKGQPREPQVYTLPPSQEEMTKNQVSLTCLVKGFYPSDIAVAWESNGQPENNYKTTPPVLDSDGSFFLYSRLTVDKSRWQEGNVFSCSVMHEALHAHYTQKSLSLSLGK
light: SYVLTQPPSVSVAPGQTARITCGGNNIGSKSVHWYQQKPGQAPVLVVYDDSDRPSGIPERFSGSNSGNTATLTISRVEAGDEADYYCQVWDSSSDHVVFGGGTKLTVLGQPKAAPSVTLFPPSSEELQANKATLVCLISDFYPGAVTVAWKADSSPVKAGVETTTPSKQSNNKYAASSYLSLTPEQWKSHRSYSCQVTHEGSTVEKTVAPTECS
notes: the paragraph that names the antibody is followed; also called CD80 IgV mutant I69Y/A71E/V83L-sugemalimab fusion
Consider B2, for which the binding result with human CD28 protein and with human CTLA4 protein was “no binding” each time.

B3: Abs-250 (other)
heavy: VIHVTKEVKEVATLSCGHNVSVEELAQTRIYWQKEKKMVLTMMSGDANIWPEYKNRTIFDITNNLSIVWLELRPSDEGTYECVVLKYEKDAFKREHLAEVTLSVKADGGGGSGGGGSGGGGSGGGGSGEVQLLESGGGLVQPGGSLRLSCAASGFTFSSYAMSWVRQAPGKGLEWVSGISGSGGFTYYADSVKGRFTISRDNSKNTLYLQMNSLRAEDTAVYYCAKPPRGYNYGPFDYWGQGTLVTVSSASTKGPSVFPLAPCSRSTSESTAALGCLVKDYFPEPVTVSWNSGALTSGVHTFPAVLQSSGLYSLSSVVTVPSSSLGTKTYTCNVDHKPSNTKVDKRVESKYGPPCPPCPAPEFLGGPSVFLFPPKPKDTLMISRTPEVTCVVVDVSQEDPEVQFNWYVDGVEVHNAKTKPREEQFNSTYRVVSVLAVLHQDWLNGKEYKCKVSNKGLPSSIEKTISKAKGQPREPQVYTLPPSQEEMTKNQVSLTCLVKGFYPSDIAVAWESNGQPENNYKTTPPVLDSDGSFFLYSRLTVDKSRWQEGNVFSCSVMHEALHAHYTQKSLSLSLGK
light: SYVLTQPPSVSVAPGQTARITCGGNNIGSKSVHWYQQKPGQAPVLVVYDDSDRPSGIPERFSGSNSGNTATLTISRVEAGDEADYYCQVWDSSSDHVVFGGGTKLTVLGQPKAAPSVTLFPPSSEELQANKATLVCLISDFYPGAVTVAWKADSSPVKAGVETTTPSKQSNNKYAASSYLSLTPEQWKSHRSYSCQVTHEGSTVEKTVAPTECS
notes: the paragraph that names the antibody is followed; also called CD80 IgV mutant M47A/I69W/A71E-sugemalimab fusion
Consider B3, for which the binding result in the assay with human CD28 protein and in the assay with human CTLA4 protein was “no binding” throughout.

B4: Abs-249 (other)
heavy: VIHVTKEVKEVATLSCGHNVSVEELAQTRIYWQKEKKMVLTMMSGDANIWPEYKNRTIFDITNNLSIVYLELRPSDEGTYECVVLKYEKDAFKREHLAEVTLSVKADGGGGSGGGGSGGGGSGGGGSGEVQLLESGGGLVQPGGSLRLSCAASGFTFSSYAMSWVRQAPGKGLEWVSGISGSGGFTYYADSVKGRFTISRDNSKNTLYLQMNSLRAEDTAVYYCAKPPRGYNYGPFDYWGQGTLVTVSSASTKGPSVFPLAPCSRSTSESTAALGCLVKDYFPEPVTVSWNSGALTSGVHTFPAVLQSSGLYSLSSVVTVPSSSLGTKTYTCNVDHKPSNTKVDKRVESKYGPPCPPCPAPEFLGGPSVFLFPPKPKDTLMISRTPEVTCVVVDVSQEDPEVQFNWYVDGVEVHNAKTKPREEQFNSTYRVVSVLAVLHQDWLNGKEYKCKVSNKGLPSSIEKTISKAKGQPREPQVYTLPPSQEEMTKNQVSLTCLVKGFYPSDIAVAWESNGQPENNYKTTPPVLDSDGSFFLYSRLTVDKSRWQEGNVFSCSVMHEALHAHYTQKSLSLSLGK
light: SYVLTQPPSVSVAPGQTARITCGGNNIGSKSVHWYQQKPGQAPVLVVYDDSDRPSGIPERFSGSNSGNTATLTISRVEAGDEADYYCQVWDSSSDHVVFGGGTKLTVLGQPKAAPSVTLFPPSSEELQANKATLVCLISDFYPGAVTVAWKADSSPVKAGVETTTPSKQSNNKYAASSYLSLTPEQWKSHRSYSCQVTHEGSTVEKTVAPTECS
notes: the paragraph that names the antibody is followed; also called CD80 IgV mutant M47A/I69Y/A71E-sugemalimab fusion
On to B4, for which the binding result with human CD28 protein and with human CTLA4 protein was “no binding” in each case.

B5: Abs-248 (other)
heavy: VIHVTKEVKEVATLSCGHNVSVEELAQTRIYWQKEKKMVLTMMSGDANIWPEYKNRTIFDITNNLSIVWLELRPSDEGTYECLVLKYEKDAFKREHLAEVTLSVKADGGGGSGGGGSGGGGSGGGGSGEVQLLESGGGLVQPGGSLRLSCAASGFTFSSYAMSWVRQAPGKGLEWVSGISGSGGFTYYADSVKGRFTISRDNSKNTLYLQMNSLRAEDTAVYYCAKPPRGYNYGPFDYWGQGTLVTVSSASTKGPSVFPLAPCSRSTSESTAALGCLVKDYFPEPVTVSWNSGALTSGVHTFPAVLQSSGLYSLSSVVTVPSSSLGTKTYTCNVDHKPSNTKVDKRVESKYGPPCPPCPAPEFLGGPSVFLFPPKPKDTLMISRTPEVTCVVVDVSQEDPEVQFNWYVDGVEVHNAKTKPREEQFNSTYRVVSVLAVLHQDWLNGKEYKCKVSNKGLPSSIEKTISKAKGQPREPQVYTLPPSQEEMTKNQVSLTCLVKGFYPSDIAVAWESNGQPENNYKTTPPVLDSDGSFFLYSRLTVDKSRWQEGNVFSCSVMHEALHAHYTQKSLSLSLGK
light: SYVLTQPPSVSVAPGQTARITCGGNNIGSKSVHWYQQKPGQAPVLVVYDDSDRPSGIPERFSGSNSGNTATLTISRVEAGDEADYYCQVWDSSSDHVVFGGGTKLTVLGQPKAAPSVTLFPPSSEELQANKATLVCLISDFYPGAVTVAWKADSSPVKAGVETTTPSKQSNNKYAASSYLSLTPEQWKSHRSYSCQVTHEGSTVEKTVAPTECS
notes: the paragraph that names the antibody is followed; also called CD80 IgV mutant M47A/I69W/A71E/V83L-sugemalimab fusion
As for B5, the binding result with human CD28 protein and in the assay with human CTLA4 protein was “no binding” in each case.
